Measurements published in patent publication US20240352128A1.
pEC50: −log10 of the molar value.

Assays:
CD16b (human) = CD16b (human) (UniProt O75015); assay: FACS
CD16a (human) = CD16a (human) (UniProt P08637); assay: FACS
CD16a (human), sequence (P08637 17-254): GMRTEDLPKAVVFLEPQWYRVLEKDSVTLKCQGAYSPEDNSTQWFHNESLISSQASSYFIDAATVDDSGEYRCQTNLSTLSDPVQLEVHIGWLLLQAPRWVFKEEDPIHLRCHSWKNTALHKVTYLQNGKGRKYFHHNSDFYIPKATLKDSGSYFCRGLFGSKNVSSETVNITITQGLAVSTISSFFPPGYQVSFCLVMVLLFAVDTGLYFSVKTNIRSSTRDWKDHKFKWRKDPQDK

CD16b (human), sequence (O75015 17-200): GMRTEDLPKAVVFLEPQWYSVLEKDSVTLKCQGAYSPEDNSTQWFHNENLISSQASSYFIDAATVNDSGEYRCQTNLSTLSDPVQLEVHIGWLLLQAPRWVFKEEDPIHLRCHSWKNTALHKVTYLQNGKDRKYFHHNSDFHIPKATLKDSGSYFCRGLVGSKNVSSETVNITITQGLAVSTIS

Row | pEC50 (CD16b (human)) | pEC50 (CD16a (human)) | Substance
1 | 3.40 |  | CD16A-mIgG1
2 | 2.84 | 2.71 | mouse IgG
